This passage reports protein stability index results from the supplement of paper PMC10724198.

± gives the standard deviation of the averaged measurements.

Data set [1] concerns Saccharomyces cerevisiae. Nature of the data set: protein stability index of tFT-peptide fusion (C-terminal peptide) (PSI (0-1 scale)); higher = more stable (slower turnover). On the procedure: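 MPS profiling in S. cerevisiae of the tFT-X12 degron library: putative degron peptides plus stable controls, 12 aa, fused to the C-terminus of a sfGFP-mCherry timer. Cells are FACS-sorted into 8 mCherry/sfGFP bins and deep-sequenced. PSI runs from 0 (unstable) to 1 (stable). Backgrounds are wild type, das1Δ and doa10Δ at 30 °C, and wild type, das1Δ, cdc34-1 and cdc53-1 at 37 °C; 2-3 technical replicates each.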

For data set [2], the system named is Saccharomyces cerevisiae. The description is as above. Particulars: genetic background: wild type; temperature: 30 C.
[3] abbreviates: genetic background: cdc34-1, temperature: 37 C.
Setting [4] is: genetic background: cdc53-1, temperature: 37 C.
Where [5] appears, read: genetic background: das1 deletion, temperature: 30 C.
[6] abbreviates: genetic background: das1 deletion, temperature: 37 C.
Setting [7] is: genetic background: doa10 deletion, temperature: 30 C.
[8] abbreviates: genetic background: wild type, temperature: 30 C.
[9] abbreviates: genetic background: wild type, temperature: 37 C.
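Note: PSI is a weighted mean of sequencing reads over stability bins, variants kept only with over 10 reads, mCherry proximal and sfGFP distal, peptide attached via GGGS linker.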

For GVYFIGISRCVC, the protein stability index in the data set on Saccharomyces cerevisiae [1] (setting [3]) amounted to 0.559 ± 0.006; in the data set with Saccharomyces cerevisiae [1] (setting [4]) it was 0.642 ± 0.037; in the data set with Saccharomyces cerevisiae [1] (setting [5]) it was 0.529 ± 0.029; in the data set on Saccharomyces cerevisiae [1] (setting [6]), 0.669 ± 0.0011; with Saccharomyces cerevisiae [1] (setting [7]), 0.175 ± 0.018; in the data set on Saccharomyces cerevisiae [1] (setting [8]), 0.208 ± 0.025. Moreover, the protein stability index in the data set with Saccharomyces cerevisiae [1] (setting [9]) is 0.36 ± 0.015; in the data set with Saccharomyces cerevisiae [2], 0.307 ± 0.0065.
With GVYRLCLLLLVY, the protein stability index in the data set on Saccharomyces cerevisiae [1] (setting [3]) came out at 0.0836 ± 0.015; with Saccharomyces cerevisiae [1] (setting [4]) it was 0.107 ± 0.03; with Saccharomyces cerevisiae [1] (setting [5]), 0.183 ± 0.014; with Saccharomyces cerevisiae [1] (setting [6]), 0.239 ± 0.021; in the data set with Saccharomyces cerevisiae [1] (setting [7]) it was 0.158 ± 0.0074; with Saccharomyces cerevisiae [1] (setting [8]) it was 0.156 ± 0.026. For the same sequence, the protein stability index was determined as 0.237 ± 0.015 in the data set with Saccharomyces cerevisiae [1] (setting [9]) and 0.218 ± 0.034 with Saccharomyces cerevisiae [2].
For GWRGVVLVFVLV, the protein stability index was 0.302 ± 0.0049 in the data set with Saccharomyces cerevisiae [1] (setting [3]); 0.46 ± 0.059 in the data set with Saccharomyces cerevisiae [1] (setting [4]); 0.28 ± 0.027 with Saccharomyces cerevisiae [1] (setting [5]); 0.47443 ± 1.3e-05 in the data set on Saccharomyces cerevisiae [1] (setting [6]); 0.251 ± 0.012 in the data set with Saccharomyces cerevisiae [1] (setting [7]); 0.269 ± 0.027 in the data set on Saccharomyces cerevisiae [1] (setting [8]). The protein stability index amounted to 0.438 ± 0.015 in the data set on Saccharomyces cerevisiae [1] (setting [9]) and 0.36784 ± 0.00027 with Saccharomyces cerevisiae [2].
Turning to GWSRRFFCLFIV, the protein stability index with Saccharomyces cerevisiae [1] (setting [3]) stood at 0.203 ± 0.052; with Saccharomyces cerevisiae [1] (setting [4]), 0.303 ± 0.0019; in the data set with Saccharomyces cerevisiae [1] (setting [5]), 0.345 ± 0.041; with Saccharomyces cerevisiae [1] (setting [6]), 0.4984 ± 0.0011; in the data set on Saccharomyces cerevisiae [1] (setting [7]) it was 0.0815 ± 0.015; in the data set on Saccharomyces cerevisiae [1] (setting [8]), 0.0745 ± 0.024. In addition, the protein stability index came to 0.0793 ± 0.006 with Saccharomyces cerevisiae [1] (setting [9]) and 0.137 ± 0.002 in the data set on Saccharomyces cerevisiae [2].
As to GWWCGIGVAVSV, the protein stability index in the data set with Saccharomyces cerevisiae [1] (setting [3]) turned out to be 0.432 ± 0.039; in the data set on Saccharomyces cerevisiae [1] (setting [4]), 0.461 ± 0.039; in the data set on Saccharomyces cerevisiae [1] (setting [5]) it was 0.337 ± 0.03; in the data set on Saccharomyces cerevisiae [1] (setting [6]), 0.5114 ± 0.0051; in the data set with Saccharomyces cerevisiae [1] (setting [7]) it was 0.292 ± 0.0069; with Saccharomyces cerevisiae [1] (setting [8]), 0.339 ± 0.027. Also, the figures for the protein stability index in the data set on Saccharomyces cerevisiae [1] (setting [9]) and with Saccharomyces cerevisiae [2] were 0.477 ± 0.01 and 0.464 ± 0.015, respectively.
Take HHACLLPVRKAG: the protein stability index with Saccharomyces cerevisiae [1] (setting [3]) came out at 0.636 ± 0.056; in the data set with Saccharomyces cerevisiae [1] (setting [4]) it was 0.752 ± 0.012; in the data set with Saccharomyces cerevisiae [1] (setting [5]) it was 0.6526 ± 0.00091; in the data set with Saccharomyces cerevisiae [1] (setting [6]), 0.744 ± 0.0085; in the data set with Saccharomyces cerevisiae [1] (setting [7]) it was 0.154 ± 0.007; with Saccharomyces cerevisiae [1] (setting [8]) it was 0.187 ± 0.0086. The protein stability index with Saccharomyces cerevisiae [1] (setting [9]) amounted to 0.404 ± 0.024; with Saccharomyces cerevisiae [2], 0.277 ± 0.027.
Regarding HLAQYSSSLHLM, the protein stability index with Saccharomyces cerevisiae [1] (setting [3]) was found to be 0.657 ± 0.098; in the data set with Saccharomyces cerevisiae [1] (setting [4]) it was 0.719 ± 0.011; in the data set on Saccharomyces cerevisiae [1] (setting [5]), 0.653 ± 0.0071; in the data set with Saccharomyces cerevisiae [1] (setting [6]), 0.731 ± 0.027; in the data set on Saccharomyces cerevisiae [1] (setting [7]) it was 0.375 ± 0.022; with Saccharomyces cerevisiae [1] (setting [8]) it was 0.424 ± 0.014. For the same sequence, the protein stability index was found to be 0.6165 ± 0.0024 in the data set on Saccharomyces cerevisiae [1] (setting [9]) and 0.554 ± 0.085 in the data set with Saccharomyces cerevisiae [2].
As for HPPPPPPPPSLS, the protein stability index with Saccharomyces cerevisiae [1] (setting [3]) was found to be 0.673 ± 0.038; in the data set on Saccharomyces cerevisiae [1] (setting [4]), 0.715 ± 0.0098; with Saccharomyces cerevisiae [1] (setting [5]) it was 0.666 ± 0.028; in the data set on Saccharomyces cerevisiae [1] (setting [6]), 0.7362 ± 0.0017; in the data set on Saccharomyces cerevisiae [1] (setting [7]), 0.677 ± 0.029; with Saccharomyces cerevisiae [1] (setting [8]), 0.67 ± 0.013. Besides, the protein stability index in the data set with Saccharomyces cerevisiae [1] (setting [9]) amounted to 0.7037 ± 0.002; in the data set on Saccharomyces cerevisiae [2] it was 0.513 ± 0.062.
For IACVLSIFLNAA, the protein stability index in the data set on Saccharomyces cerevisiae [1] (setting [3]) is 0.325 ± 0.0071; in the data set with Saccharomyces cerevisiae [1] (setting [4]), 0.435 ± 0.051; in the data set with Saccharomyces cerevisiae [1] (setting [5]) it was 0.292 ± 0.039; in the data set on Saccharomyces cerevisiae [1] (setting [6]), 0.435 ± 0.0047; in the data set on Saccharomyces cerevisiae [1] (setting [7]), 0.2559 ± 0.0013; in the data set with Saccharomyces cerevisiae [1] (setting [8]) it was 0.274 ± 0.031. In addition, the protein stability index stood at 0.436 ± 0.0094 in the data set with Saccharomyces cerevisiae [1] (setting [9]) and 0.44 ± 0.054 in the data set on Saccharomyces cerevisiae [2].
As to ICQFFFFALLSF, the protein stability index in the data set on Saccharomyces cerevisiae [1] (setting [3]) is 0.109 ± 0.04; in the data set with Saccharomyces cerevisiae [1] (setting [4]), 0.0674 ± 0.0054; in the data set with Saccharomyces cerevisiae [1] (setting [5]) it was 0.164 ± 0.016; in the data set with Saccharomyces cerevisiae [1] (setting [6]), 0.244 ± 0.021; in the data set with Saccharomyces cerevisiae [1] (setting [7]), 0.238 ± 0.011; in the data set on Saccharomyces cerevisiae [1] (setting [8]) it was 0.128 ± 0.018. Moreover, the protein stability index came out at 0.19 ± 0.0063 in the data set on Saccharomyces cerevisiae [1] (setting [9]) and 0.178 ± 0.013 with Saccharomyces cerevisiae [2].
